Literature values as cited in paper PMC4212800.

Biological target: CD4 D1-D2 (Homo sapiens) (UniProt P01730)

For Ibalizumab, the Kd is listed as 0.0825 nM.
